# From the supplement of paper PMC7125110
# ± gives the standard error. Fewer inactive variants are shown than the library holds.
# B1: glmS ribozyme (parent)
# chain: AUAAAAGCGCCAGAACUACAGAAAUGUAGUUGACGAGGAGGAGGUUUAUCGAAUUUUCGGCGGAUGCCUCCAAA
# Legend:
# Conditions in all cases: with glucosamine-6-phosphate
# glucosamine-6-phosphate [1] = variants of: B1; assay: self-cleavage kobs at 40 uM GlcN6P; higher = faster cleavage; RNA array
# Summary of the method: (§1)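 Ribozyme variants carrying barcodes were transcribed in situ on sequenced MiSeq chips by E. coli RNA polymerase and tracked at 37 °C with a hybridised Cy3 probe. They were exposed to 40 μM to 10 mM glucosamine-6-phosphate in HEPES/KCl/Mg(OAc)2 buffer. kobs came from exponential decay fits of normalised per-tile medians, and kcat and KM from weighted Michaelis–Menten fits.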
# glucosamine-6-phosphate [2] = variants of: B1; assay: self-cleavage kobs at 2500 uM GlcN6P; higher = faster cleavage; RNA array
# Summary of the method: as §1
# glucosamine-6-phosphate [3] = variants of: B1; assay: self-cleavage kobs at 10000 uM GlcN6P; higher = faster cleavage; RNA array
# Summary of the method: as §1
# glucosamine-6-phosphate [4] = variants of: B1; assay: self-cleavage kobs at 160 uM GlcN6P; higher = faster cleavage; RNA array
# Summary of the method: as §1
# glucosamine-6-phosphate [5] = variants of: B1; assay: self-cleavage kobs at 640 uM GlcN6P; higher = faster cleavage; RNA array
# Summary of the method: as §1
Variant,self-cleavage kobs at 40 uM GlcN6P (glucosamine-6-phosphate [1]) [s⁻¹],self-cleavage kobs at 2500 uM GlcN6P (glucosamine-6-phosphate [2]) [s⁻¹],self-cleavage kobs at 10000 uM GlcN6P (glucosamine-6-phosphate [3]) [s⁻¹],self-cleavage kobs at 160 uM GlcN6P (glucosamine-6-phosphate [4]) [s⁻¹],self-cleavage kobs at 640 uM GlcN6P (glucosamine-6-phosphate [5]) [s⁻¹]
G7C C11U C61A C70G,< 1e-05,< 1e-05,,,
U31A A36G A52C,< 1e-05,,< 1e-05,,
A6U C11U G32U,< 1e-05,,< 1e-05,,
A6U G38A G40U G51C,< 1e-05,,,,
C10G C11G C68U,< 1e-05,,,,
G43U U47A,< 1e-05,,,,
A42U U65C,< 1e-05,< 1e-05,< 1e-05,< 1e-05,< 1e-05
A14G U46G C67A,0.000265 ± 6.3e-05,,0.00474 ± 0.0012,,
G13U C34A U49A U65C,< 1e-05,,< 1e-05,,
A53U C68U,0.000159 ± 2.1e-05,0.00421 ± 0.00073,0.00507 ± 0.00083,0.000357 ± 0.00011,0.000788 ± 9.5e-05
A12U U55A,0.00252 ± 0.00039,,0.0587 ± 0.02,0.00433 ± 0.0018,0.0231 ± 0.0089
G40U G59C G60U C70G,< 1e-05,,< 1e-05,,
A52G G60C,< 1e-05,< 1e-05,,< 1e-05,< 1e-05
G9A G51A,< 1e-05,,< 1e-05,,
G37C G38A,< 1e-05,,< 1e-05,< 1e-05,
A53G U54G,0.00114 ± 0.00028,0.00388 ± 0.0012,0.081 ± 0.028,0.00165 ± 0.00047,0.00511 ± 0.0011
A15C C61U U69G,< 1e-05,,< 1e-05,,
G13C G35C,< 1e-05,< 1e-05,< 1e-05,< 1e-05,
C16A G59C,< 1e-05,,,,< 1e-05
G60C G66U,< 1e-05,< 1e-05,,,< 1e-05
G38C G41A,< 1e-05,< 1e-05,< 1e-05,< 1e-05,< 1e-05
G29A U55C C61G,< 1e-05,,,,
A15U G62U,< 1e-05,< 1e-05,< 1e-05,,< 1e-05
C8U A12G C50U C68G,3.9e-05 ± 1.6e-05,0.000476 ± 0.00018,6.84e-05 ± 1.7e-05,0.000221 ± 8.4e-05,0.00022 ± 8.6e-05
U47C C61U,< 1e-05,< 1e-05,< 1e-05,< 1e-05,< 1e-05

Variant,self-cleavage kobs at 40 uM GlcN6P (glucosamine-6-phosphate [1]) [s⁻¹],self-cleavage kobs at 2500 uM GlcN6P (glucosamine-6-phosphate [2]) [s⁻¹],self-cleavage kobs at 10000 uM GlcN6P (glucosamine-6-phosphate [3]) [s⁻¹],self-cleavage kobs at 160 uM GlcN6P (glucosamine-6-phosphate [4]) [s⁻¹],self-cleavage kobs at 640 uM GlcN6P (glucosamine-6-phosphate [5]) [s⁻¹]
G62A G66U,< 1e-05,< 1e-05,< 1e-05,,< 1e-05
U56C U69C C70A,< 1e-05,< 1e-05,< 1e-05,< 1e-05,< 1e-05
G9A G38C,< 1e-05,,,< 1e-05,< 1e-05
C10U G13C A36C,< 1e-05,,,,
A6G A15G C71U,< 1e-05,,,,
C11A C34U G63C,< 1e-05,< 1e-05,,,< 1e-05
G38C U65G,< 1e-05,,,< 1e-05,< 1e-05
A6G C10A G13A G62A U65A,< 1e-05,,< 1e-05,,
C8U G29C C50A,< 1e-05,,,,< 1e-05
A14U A15G A53G,0.000126 ± 2.3e-05,,0.0102 ± 0.0019,,
G35A C61G U65G C67A U69G,6.66e-05 ± 2.3e-05,,,,
C50A G51C,< 1e-05,,< 1e-05,,
G7A A48U U49G,< 1e-05,,< 1e-05,,
C34A G40C U46C,< 1e-05,,,,
C11G U55G,< 1e-05,,,< 1e-05,
G7U U49A A52C G60C C61U,< 1e-05,< 1e-05,< 1e-05,,< 1e-05
C11A U46G A52C,< 1e-05,,< 1e-05,,
G29C U45A C68G,< 1e-05,,< 1e-05,,
A12U G32U A53G,< 1e-05,0.000144 ± 3.6e-05,0.000231 ± 6.4e-05,,
C11U G29U C50U C71G,4.57e-05 ± 2.1e-05,,,,
G21U C67G,9.41e-05 ± 2.8e-05,0.000139 ± 4.1e-05,0.00119 ± 0.00023,,
A14C U31G U47G,0.00012 ± 1.8e-05,,0.00313 ± 0.00068,,
A52G C61G,< 1e-05,,< 1e-05,,
A14G C71G,0.00028 ± 3.6e-05,,0.00586 ± 0.0014,0.000718 ± 0.00016,0.00058 ± 7.9e-05
